The values that follow come from patent publication US20200199244A1 (published 2020).

Residue numbers refer to the chain shown, from its start. Several values for one entry are separate records, joined by “and”; a condition that tells them apart may be missing. Equal entries are not always repeated. Where two headings read alike, the source gives them in different places.

Assay [1] addresses T1, human CD40 (H76R, W109L, L121P) Fc fusion (human).
T1 construct: Made by site-directed mutagenesis of the wild type construct; no cleavage site is stated; also called hCD40-M5; hCD40-M5 (H76R, W109L, L121P); not shown: human IgG1 Fc
T1 chain: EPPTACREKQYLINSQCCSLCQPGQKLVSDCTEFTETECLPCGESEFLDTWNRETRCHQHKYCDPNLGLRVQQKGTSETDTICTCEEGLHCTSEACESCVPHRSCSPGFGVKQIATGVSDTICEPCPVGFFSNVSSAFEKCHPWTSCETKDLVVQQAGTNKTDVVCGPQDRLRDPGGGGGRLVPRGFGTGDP
The experiment in a line: SPR (ProteOn XPR36), CD40-Fc captured via anti-human IgG(Fc), dAb as analyte, 25 C.

In assay [2] the target is T2, human CD40 (W109L, L121P) Fc fusion (human, UniProt P25942 21-193).
T2 construct: Made by site-directed mutagenesis of the wild type construct; no cleavage site is stated; also called hCD40-M4; hCD40 M4 (W109L, L121P); not shown: human IgG1 Fc
The description is as above.

Assay [3] has as its target T3, wild type cynomolgus monkey CD40 Fc fusion (cynomolgus monkey (Macaca …)).
T3 construct: also called wt-cyno-CD40; wt-cCD40; not shown: human IgG1 Fc
T3 chain: T1 chain with A95S, S106L, H142R, L172Q
The assay is described as above.

The target in assay [4] is T4, human CD40 expressed on stably transfected CHO-DG44 cells (human, UniProt P25942 21-277).
T4 construct: also called CHO-CD40
The experiment in a line: CHO-CD40 cell RBA, competition with IZ-CD40L.

The target of assay [5] is T5, human CD40 (BMS, CY24FEB06-01) (human, UniProt P25942 21-193).
T5 construct: Soluble reagent of the bead and ELISA RBA; It is detected with an anti-human IgG (Fc) mAb, so it may be a CD40-Ig fusion
The experiment in a line: bead RBA, competition with IZ-CD40L.

The target in assay [6] is T6, biotinylated human CD40 (human, UniProt P25942 21-193, limits assumed, biotinylated (sites not given)).
T6 construct: Biotinylated human CD40 (supplied by BMS), about 600 RU immobilised on a streptavidin BIAcore chip; also called hCD40
The assay is described as follows: SPR, BIAcore 3000, 10 µM dAb alone over biotinylated human CD40. A general note: Surface plasmon resonance follows binding to a sensor surface in real time, without labels.

Assay [7] deals with T6, biotinylated human CD40. The assay is described as follows: SPR, BIAcore 3000, dAb injected alone over biotinylated human CD40 on SA chip.
Method: (§1) A BIAcore™ 3000 instrument (GE Healthcare) was used to analyze whether CD40-specific dAbs bound the same CD40 epitope. […] A second flow-cell without any ligand immobilized served as a reference flow-cell for inline referencing. An appropriate dilution of each dAb or Fab to be analyzed was prepared in HBS-EP buffer (0.01 M HEPES pH 7.4 with 0.15 M NaCl, 3 mM EDTA and 0.005% v/v Surfactant P20, GE Healthcare). […] Next, a mixture of the same dAb or Fab as above (at the same final concentration) was prepared with a second dAb or Fab to be analyzed for competition. The COINJECT function of the instrument was used to inject 60 μl of the single-inhibitor dilution across the CD40-immobilized and reference flow-cells in series, followed immediately by a 60 μl injection of the two-inhibitor mixture. Inline subtraction of the signal from the reference cell was performed by the instrument's control software. The experiment was performed at 25° C. and a flow rate of 30 μl/min of HBS-EP. […] The maximum RU obtained for the second injection (the mixture of the two inhibitors) was noted and expressed as a percentage of the RU obtained for the same inhibitor when injected alone.
Assay [8] addresses T6, biotinylated human CD40. The experiment in a line: SPR, BIAcore 3000 COINJECT over biotinylated human CD40; mixture after first injection; competitor BMS3h-37-11.
Method: as §1
Assay [9] addresses T6, biotinylated human CD40. The experiment in a line: SPR, BIAcore 3000 COINJECT over biotinylated human CD40; mixture after first injection; competitor BMS3h-202-11.
Method: as §1
Assay [10] concerns the target T6, biotinylated human CD40. The experiment in a line: SPR, BIAcore 3000 COINJECT over biotinylated human CD40; mixture after first injection; competitor BMS3h-198-1.
Method: as §1
For assay [11], the target named is T6, biotinylated human CD40. The experiment in a line: SPR, BIAcore 3000 COINJECT over biotinylated human CD40; mixture after first injection; competitor BMS3h-56-5.
Method: as §1
The target of assay [12] is T6, biotinylated human CD40. The description is as above. The source holds these as a separate data set.
Method: as §1
Assay [13] deals with T6, biotinylated human CD40. The experiment in a line: SPR, BIAcore 3000, dAb injected alone over biotinylated human CD40 on SA chip. This is another data set of the same source.
Method: as §1
Assay [14] deals with T6, biotinylated human CD40. The experiment in a line: SPR, BIAcore 3000, 5 µM dAb alone over biotinylated human CD40.
Method: as §1
The target of assay [15] is T6, biotinylated human CD40. The experiment in a line: SPR, BIAcore 3000 COINJECT over biotinylated human CD40; mixture after first injection; competitor BMS3h-131-2.
Method: as §1

B1: BMS3h-56-217 (other)
VH: EVQLLESGGGLVQPGGSLRLSCAASGFTFRDYEMWWVRQAPGKGLERVSAINPWGSLTYYADSVKGRFTISRDNSKNTLYLQMNSLRAEDTAVYYCAKLPFTFEDWGQGTLVTVSS
notes: Anti-human CD40 domain antibody (dAb), a single human VH domain
Regarding B1, the binding result in [1], in assay [2] and in assay [3] was “no binding (tested: 405 nM (highest dAb concentration))” in each case.

B2: BMS3h-217 (other)
VL: DIQMTQSPSSLSASVGDRVTITCRASHFIGTLLSWYQQKPGKAPKLLITYGSLLQSGVPSRFSGSGSGTDFTLTISSLQPEDFATYYCGQGVLWPATFGQGTKVEIKR
notes: dAb, single VK
What is called EC50 is the concentration at which the effect is half-maximal. B2: the EC50 in assay [4] worked out at 1400 nM; in assay [5] it was 800 nM.

B3: BMS3h-217 (other)
VL: B2 VL
notes: Domain antibody (dAb), single human V kappa domain
For B3, in the assay with biotinylated human CD40 [6], the “Single dAb RU” value amounted to 85 RU.

B4: BMS3h-131-2 (other)
VL: DIQMTQSPSSLSASVGDRVTITCRADSSILWALAWYQQKPGKAPKLLIESSSGLQSGVPSRFSGSGSGTDFTLTISSLQPEDFATYYCVQNAVWPGTFGQGTKVEIKR
notes: as for B3
For B4, in the assay with biotinylated human CD40 [7], the “RU first dAb alone” value is 220 RU. The “Second Injection (% of single dAb RU)” value turned out to be 25% with biotinylated human CD40 [8], 57% in the assay with biotinylated human CD40 [9], 41% with biotinylated human CD40 [10] and 17% in the assay with biotinylated human CD40 [11].

B5: BMS3h-41-9 (other)
VH: EVQLLEPGGGLVQPGGSLRLSCAASGFTFTEYEMIWVRKAPGKGMEWVSSISGNGANTYYADSVKGRFTISRDNSKNTLYLQMNSLRPEDTAVYYCAKEPLRFDDWGQGTLVTVSS
notes: Domain antibody (dAb), single human VH domain
B5: in the assay with biotinylated human CD40 [12], the “Second Injection (% of single dAb RU)” value was 0%. The “RU first dAb alone” value with biotinylated human CD40 [13] was 150 RU.

B6: BMS3h-41-13 (other)
VH: B5 VH with P7S, G8A, T30A, K39Q, M45L, P88A, D105Y, T110A
notes: as for B5
Consider B6, for which the “Single dAb RU” value in the assay with biotinylated human CD40 [14] was found to be 162 RU.

B7: BMS3h-107 (other)
VH: EVQLLESGGGLVQPGGSLRLSCAASGFTFSGYDMQWVRQAPGKGLEWVSTISASGVFTYYADSVKGRFTTSRDNSKNTLYLQMNSLRAEDTAVYYCAKYPNRFALNNFDYWGQGTLVTVSS
notes: as for B5
In the case of B7, the “Single dAb RU” value in the assay with biotinylated human CD40 [6] worked out at 35 RU.

B8: BMS3h-38-2 (other)
VH: EVQLLASGGGLVQPGGSLRLSCAASGFTFEEEEMIWVRQAPGKGLEWVSAISGSGGSTYYADSVKGRFTISRDNSKNTLYLQMNSLRAEDTAVYYCGKEPFRYDYWGQGTLVTVSS
notes: as for B5
B8: the “Second Injection (% of single dAb RU)” value in the assay with biotinylated human CD40 [12] came to 4%. Further, the “RU first dAb alone” value with biotinylated human CD40 [13] worked out at 170 RU.

B9: BMS3h-37-11 (other)
VH: EVQLLESGGGLVQPGGSLRLSCAASGFTFEWYEMQWVRKAPGKGLEWVSAISGDGYRTYYADSVKGRFTISRDNSKNTLYLQMNSLRAEDTAVYYCAKELGYFDYRGRGTLVTVSS
notes: as for B5
As for B9, the “RU first dAb alone” value with biotinylated human CD40 [7] came out at 158 RU. The “Second Injection (% of single dAb RU)” value was 42% with biotinylated human CD40 [9], 6.4% with biotinylated human CD40 [10], -3.7% in the assay with biotinylated human CD40 [15] and -15% with biotinylated human CD40 [11].

B10: BMS3h-43 (other)
VH: EVQLLESGGGLVQPGGSLRLSCTASGFTFNMYEMSWVRQAPGKGLEWVSGISRRGFTTYYADSVKGRFTISRDNSKNTLYLQMNSLRAEDTAVYYCAKEPITYAMRYARFDYWGQGTLVTVSS
notes: dAb, single VH
Take B10: the EC50 in [4] was 5000 nM; in assay [5] it was 100 nM and 50 nM.

B11: BMS3h-43-1 (other)
VH: B10 VH with A104D, M105L, W113S
notes: as for B5
As to B11, in the assay with biotinylated human CD40 [12], the “Second Injection (% of single dAb RU)” value amounted to 22%. In the assay with biotinylated human CD40 [13], the “RU first dAb alone” value is 210 RU.

B12: BMS3h-43-3 (other)
VH: B10 VH with S75F, A104D, W113G
notes: as for B5
As for B12, the “Single dAb RU” value with biotinylated human CD40 [14] came to 300 RU.

B13: BMS3h-106 (other)
VH: EVQLLESGGGLVQPGGSLRLSCAASGFTFSTYHMQWVRQAPGKGLEWVSMIDADGLGTYYADSVKGRFTISRDNSKNTLYLQMNSLRAEDTAVYYCAKPGPQFGQFDYWGQGTLVTVSS
notes: as for B5
For the molecule B13, in the assay with biotinylated human CD40 [6], the “Single dAb RU” value was found to be 165 RU.

B14: BMS3h-198 (other)
VH: EVQLLESGGGLVQPGGSLRLSCAASGFTFAGYEMWWVRQAPGKGLERVSAISGSGGSTYYADSVKGRFTISRDDSKNTLYLQMNSLRAEDTAVYYCAKDPYSFDYWGQGTLVTVSS
notes: dAb, single VH
Take B14: the results for the EC50 in [4] and in assay [5] were 600 nM and 80 nM, respectively.

B15: BMS3h-198-1 (other)
VH: B14 VH with F27S, F29I, K98R
notes: as for B5
As for B15, in the assay with biotinylated human CD40 [7], the “RU first dAb alone” value came to 176 RU. In addition, the “Second Injection (% of single dAb RU)” value in the assay with biotinylated human CD40 [8] is 16%; with biotinylated human CD40 [9] it was 39%; with biotinylated human CD40 [15] it was 23.2%; in the assay with biotinylated human CD40 [11], 0.6%.

B16: BMS3h-193-12 (other)
VL: DIQMTQSPSSLSASVGDRVTITCRASQTIERRLNWYQQKPGKAPKLLIYLASRLQSGVPSRFSGSGSGTDFTLTISSLQPEDFATYYCHQYESPPLTFGQGTKVEIKR
notes: as for B3
In the case of B16, the “Single dAb RU” value with biotinylated human CD40 [14] stood at 282 RU.

B17: BMS3h-202-11 (other)
VH: EVQLLESGGGLVQPGGSLRLSCAASGFTFPTAEMLWVRKAPGKGLEWVSSISASGGSTYYADSVKGRFTISRDNSKNTLYLQMNSLRAEDAAVYYCAKEPVSYVATFDYWGQGTLVTVSS
notes: as for B5
Consider B17, for which the “RU first dAb alone” value in the assay with biotinylated human CD40 [7] is 124 RU. For the same molecule, the “Second Injection (% of single dAb RU)” value in the assay with biotinylated human CD40 [8] turned out to be 0.3%; in the assay with biotinylated human CD40 [10] it was 18%; with biotinylated human CD40 [15], 10.3%; in the assay with biotinylated human CD40 [11] it was 7.3%.
